Test results published in the supplement of paper PMC10567573.

B1: GOLPH3 (parent)
chain: FAPLLDEQYDLATKRVRQLLDLDP
B2: WDR41 (parent)
chain: WTMQAYERNFWDPSPQLDTQQEIK

Variants of: B1
Experiment: protein stability index of a GFP-peptide fusion (GPS, HEK-293T) (PSI 1-6); higher = more stable
Details: c terminus: a fixed tail appended
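Further: lentivirally expressed fusions sorted by FACS into six bins by GFP to DsRed ratio, PSI derived from sequencing read proportions per bin multiplied by bin number.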

| Variant | protein stability index |
| --- | --- |
| P24V | 2.7 |
| P24H | 3.6 |
| P24I | 1.38 |
| P24L | 2.11 |
| P24N | 2.46 |
| P24T | 2.3 |
| P24Q | 2.33 |
| P24M | 2 |
| P24Y | 1.45 |
| P24R | 2.28 |
| P24W | 1.29 |
| P24S | 1.48 |

Variants of: B2
Experiment: as above
Details: c terminus: a fixed tail appended

| Variant | protein stability index |
| --- | --- |
| F10A | 3.23 |
| F10T | 3.89 |
| F10H | 4.14 |
| F10K | 3.72 |
| F10R | 3.55 |
| F10I | 3.58 |
| F10N | 3.7 |
| F10Y | 3.38 |
| F10L | 3.95 |
| F10Q | 4.61 |
| F10E | 3.92 |
| F10M | 4.03 |
| Q16V | 2.03 |
| Q16S | 1.82 |
| Q16I | 2.33 |
| Q16M | 1.46 |
| Q16F | 2.5 |
| Q16P | 2.4 |
| Q16G | 2.83 |
| Q16K | 2.42 |
| Q16Y | 1.68 |
| Q16A | 2.24 |
| Q16C | 2.17 |
| Q16H | 2.01 |
| Q16T | 2.67 |

| Variant | protein stability index |
| --- | --- |
| I23V | 2.02 |
| I23A | 2.99 |
| I23P | 2.97 |
| I23Y | 2.32 |
| I23H | 2.75 |
| I23M | 2.18 |
| I23S | 3.27 |
| I23W | 2.12 |
| I23C | 2.11 |
| I23D | 3.61 |
| I23N | 3.24 |
| I23Q | 3.15 |
| K24H | 2.29 |
| K24G | 2.29 |
| K24P | 2.09 |
| K24V | 2.17 |
| K24D | 2.83 |
| K24Q | 2.44 |
| K24W | 1.46 |
| K24F | 2.01 |
| K24Y | 2.46 |
| K24S | 2.59 |
| K24T | 2.63 |
| K24R | 2.58 |
| K24L | 1.76 |

| Variant | protein stability index |
| --- | --- |
| K24I | 1.98 |
| K24A | 2.47 |
| K24N | 2.31 |
| M3Q | 3.07 |
| M3Y | 2.24 |
| M3S | 1.79 |
| M3C | 1.97 |
| M3G | 2.46 |
| M3I | 2.14 |
| M3W | 2.77 |
| M3T | 2.86 |
| M3K | 2.96 |
| M3H | 2.63 |
| M3D | 3.96 |
| M3A | 2.44 |
| M3F | 2.07 |
| M3V | 3.16 |
| P15D | 3.03 |
| P15W | 1.75 |
| P15H | 2.56 |
| P15T | 3.12 |
| P15N | 2.6 |
| P15K | 2.43 |
| P15M | 2.7 |
| P15Y | 1.81 |

| Variant | protein stability index |
| --- | --- |
| P15R | 1.99 |
| P15C | 2.3 |
| P15L | 2.3 |
| P15A | 2.82 |
| P15Q | 2.08 |
| T2V | 2.14 |
| T2S | 2 |
| T2F | 1.71 |
| T2E | 3.75 |
| T2P | 3.82 |
| T2N | 2.11 |
| T2Q | 2.89 |
| T2Y | 2.16 |
| T2G | 2.93 |
| T2W | 2.15 |
| T2L | 1.69 |
| R8F | 2.54 |
| R8A | 2.52 |
| R8W | 2.4 |
| R8G | 2.59 |
| R8C | 2.59 |
| R8H | 3.01 |
| R8V | 2.57 |
| R8N | 3.41 |
| R8S | 3.21 |

| Variant | protein stability index |
| --- | --- |
| R8T | 2.95 |
| R8L | 2.42 |
| R8Y | 2.52 |
| E7F | 2.88 |
| E7T | 2.72 |
| E7V | 2.88 |
| E7N | 3.04 |
| E7I | 1.92 |
| E7R | 2.86 |
| E7C | 1.77 |
| E7Y | 2.26 |
| E7L | 3.28 |
| E7S | 2.45 |
| E7H | 2.32 |
| E7M | 1.93 |
| E7A | 2.02 |
| W1S | 4.51 |
| W1V | 3.47 |
| W1G | 4.73 |
| W1I | 3.35 |
| W1N | 4.46 |
| W1Y | 3.58 |
| W1C | 2.3 |
| W1Q | 4.81 |
| W1A | 3.77 |

| Variant | protein stability index |
| --- | --- |
| W1T | 4.25 |
| W1E | 4.41 |
| W1L | 3.9 |
| W1F | 2.44 |
| D18V | 2.63 |
| D18A | 2.32 |
| D18Y | 1.97 |
| D18Q | 2.34 |
| D18I | 2.28 |
| D18G | 2.56 |
| D18H | 2.2 |
| D18E | 2.7 |
| D18R | 2.02 |
| D18S | 2.23 |
| D18M | 2.19 |
| P13H | 2.33 |
| P13E | 3.17 |
| P13K | 3.44 |
| P13C | 2.31 |
| P13T | 1.56 |
| P13I | 2.6 |
| P13V | 2.04 |
| P13D | 3.07 |
| P13M | 2.34 |
| P13Q | 2.65 |

| Variant | protein stability index |
| --- | --- |
| P13Y | 2.26 |
| P13F | 1.82 |
| P13G | 2.1 |
| P13R | 3.01 |
| P13L | 3.3 |
| P13S | 3.46 |
| P13N | 2.29 |
| S14I | 2.17 |
| S14L | 2.7 |
| S14E | 3.22 |
| S14F | 2.56 |
| S14Y | 2.23 |
| S14P | 3.16 |
| S14K | 2.09 |
| S14N | 2.74 |
| S14V | 2.58 |
| S14R | 2.37 |
| S14D | 3.26 |
| S14C | 2.59 |
| S14W | 2.07 |
| S14T | 2.89 |
| S14Q | 2.76 |
| T19Y | 1.62 |
| T19V | 2.35 |
| T19P | 2.21 |

| Variant | protein stability index |
| --- | --- |
| T19C | 2.19 |
| T19R | 2.05 |
| T19N | 2.96 |
| T19I | 2 |
| T19A | 2.73 |
| T19Q | 2.55 |
| T19E | 2.37 |
| T19H | 2.74 |
| T19M | 2.35 |
| T19L | 2.5 |
| T19K | 2.69 |
| T19W | 2.22 |
| T19F | 1.55 |
| W11V | 3.54 |
| W11E | 4.57 |
| W11H | 4.04 |
| W11N | 4.21 |
| W11D | 4.47 |
| W11R | 4.47 |
| W11G | 3.94 |
| W11I | 3.91 |
| W11Q | 3.93 |
| W11A | 4.26 |
| W11K | 4.75 |
| W11F | 3.15 |

| Variant | protein stability index |
| --- | --- |
| W11L | 4.43 |
| W11S | 3.93 |
| W11P | 3.97 |
| W11T | 3.93 |
| W11C | 3.66 |
| D12N | 3.51 |
| D12F | 3.8 |
| D12V | 3.8 |
| D12C | 2.25 |
| D12L | 3.49 |
| D12Y | 1.4 |
| D12M | 2.93 |
| D12Q | 1.37 |
| D12S | 2.51 |
| D12R | 3.92 |
| D12I | 2.15 |
| D12K | 2.06 |
| Q21P | 2.66 |
| Q21H | 1.99 |
| Q21K | 2.28 |
| Q21F | 1.93 |
| Q21M | 2.93 |
| Q21D | 2.1 |
| Q21S | 3.13 |
| Q21G | 2.62 |

| Variant | protein stability index |
| --- | --- |
| Q21T | 2.5 |
| Q21A | 2.39 |
| Y6V | 2.79 |
| Y6M | 3.17 |
| Y6T | 2.83 |
| Y6L | 2.98 |
| Y6N | 2.93 |
| Y6H | 1.92 |
| Y6E | 3.19 |
| Y6I | 2.67 |
| Y6R | 3.58 |
| Y6K | 3.06 |
| Y6F | 2.58 |
| Y6G | 2.86 |
| L17C | 2.58 |
| L17E | 2.9 |
| L17F | 2.94 |
| L17S | 2.68 |
| L17I | 2.25 |
| L17D | 3.56 |
| L17H | 3.32 |
| L17M | 3.2 |
| L17Q | 3.18 |
| L17W | 2.37 |
| L17T | 2.31 |

| Variant | protein stability index |
| --- | --- |
| L17V | 2.75 |
| L17K | 2.84 |
| L17N | 2.8 |
| L17A | 2.6 |
| Q4M | 2.92 |
| Q4E | 2.05 |
| Q4I | 3.51 |
| Q4K | 1.5 |
| Q4L | 2.35 |
| Q4F | 2.38 |
| Q4N | 1.67 |
| Q4H | 1.89 |
| Q4A | 2.23 |
| Q4D | 2.26 |
| Q4R | 1.8 |
| Q4V | 2.25 |
| Q4P | 3.21 |
| Q4Y | 2.42 |
| Q4T | 1.95 |
| E22D | 1.85 |
| E22S | 2.96 |
| E22A | 2.45 |
| E22M | 2.03 |
| E22L | 2.07 |
| E22N | 2.41 |

| Variant | protein stability index |
| --- | --- |
| E22Y | 2.17 |
| E22P | 2.34 |
| E22K | 2.37 |
| E22I | 2.81 |
| E22C | 2.55 |
| E22T | 2.33 |
| E22V | 2.36 |
| E22H | 1.8 |
| Q20T | 2.04 |
| Q20V | 2.34 |
| Q20E | 2.35 |
| Q20Y | 2.07 |
| Q20R | 2.44 |
| Q20G | 2.19 |
| Q20L | 2.19 |
| Q20F | 1.99 |
| Q20D | 3.42 |
| Q20M | 2.27 |
| Q20I | 2.07 |
| Q20C | 2.75 |
| Q20K | 2.28 |
| Q20A | 1.64 |
| A5L | 2.66 |
| A5E | 3.65 |
| A5H | 3.47 |

| Variant | protein stability index |
| --- | --- |
| A5P | 2.49 |
| A5F | 1.91 |
| A5G | 3.53 |
| A5D | 3.33 |
| A5R | 3.25 |
| A5N | 3.18 |
| A5C | 2.51 |
| A5Y | 2.18 |
| A5S | 2.75 |
| A5I | 1.68 |
| N9I | 2.04 |
| N9P | 2.71 |
| N9L | 1.35 |
| N9W | 1.59 |
| N9D | 3.69 |
| N9T | 2.52 |
| N9G | 2.64 |
| N9R | 1.63 |
| N9Q | 1.64 |
| N9C | 1.94 |
| N9H | 1.6 |
| N9E | 3.29 |
